Columns and labels:
[1] = system: monkeys; assay: Periostin injection in monkeys, number of scratches; assay type: in vivo, monkey; settings: mouse recombinant periostin 25 μg/100 μl subcutaneously, thigh, within 15 minutes
Method: All behavioral experiments were conducted during the light cycle at ambient temperature (23° C.). Behavioral assessment of scratching behavior was conducted as described previously (Mishra et al., 2011). Briefly, mice were injected intradermal into the nape of the neck with periostin (R&D), histamine, and chloroquine (all Millipore-Sigma) as previously described (Shimada and LaMotte, 2008). Compounds were diluted in PBS and the same was used as a vehicle. […] Additionally, cilengitide and periostin were combined together (mix) and injected i.d. into the dorsal neck of mouse. Scratching behavior was recorded for 30 minutes and data was presented in bouts per 30 minutes for mice. […] For eye wipes assay, periostin and capsaicin were dropped on mouse cornea and counted wipes for 1-minute. […] For dog's study, periostin (25 μg/25 μl) was injected in the dorsal neck (s.c.) and behavior was recorded and quantified for 30 minutes as “duration of pruritus manifestation” (DPM), as described earlier (Paps et al., 2016). […] When different raters separately scored a single tape, the ratings indicated high interrater reliability (coefficient of correlation, r>0.95). This method of itch readout in NHP has been used and accepted (Ko and Naughton, 2000). The behavior was recorded for 30 minutes duration and number of scratches quantified. […]

[2] = system: SST-positive DRG neurons; assay: Whole-cell patch clamp recordings in SST-positive mouse DRG neurons; assay type: cell-based
Method: DRGs were removed aseptically from SOM-reporter mice (6-8 weeks) and incubated with collagenase (1.25 mg/ml)/dispase-II (2.4 units/ml) (both from Roche, Basel, Switzerland) at 37° C. for 90 min, then digested with 0.25% trypsin for 8 min at 37° C., followed by 0.25% trypsin inhibitor. Cells were mechanically dissociated with a flame polished Pasteur pipette in the presence of 0.05% DNAse I (Sigma, St. Louis, Miss., United States of America). DRG cells were plated on glass cover slips and grown in a neurobasal defined medium (with 2% B27 supplement, Invitrogen, Carlsbad, Calif., United States of America) with 5 μM AraC and 5% carbon dioxide at 36.5° C. DRG neurons were grown for 24 hours before use. Whole-cell patch clamp recordings were performed at room temperature using an Axopatch-700B amplifier (Axon Instruments, Foster City, Calif., United States of America) with a Digidata 1440B (Axon Instruments, Foster City, Calif., United States of America). Only SOM-positive neurons (<[…]) were recorded. […] Pipette resistance was 4-6 MΩ for whole-cell recording of periostin—induced inward currents, as previously recorded (Han et al., Neuron, 2018, PMID: 30033153)

B1: periostin: fasciclin extracellular matrix protein, endogenous ligand of integrin αvβ3; mouse recombinant used (protein)
chain: NSYYDKVLAHSRIRGRDQGPNVCALQQILGTKKKYFSSCKNWYQGAICGKKTTVLYECCPGYMRMEGMKGCPAVMPIDHVYGTLGIVGATTTQHYSDVSKLREEIEGKGSYTYFAPSNEAWENLDSDIRRGLENNVNVELLNALHSHMVNKRMLTKDLKHGMVIPSMYNNLGLFINHYPNGVVTVNCARVIHGNQIATNGVVHVIDRVLTQIGTSIQDFLEAEDDLSSFRAAAITSDLLESLGRDGHFTLFAPTNEAFEKLPRGVLERIMGDKVASEALMKYHILNTLQCSEAITGGAVFETMEGNTIEIGCEGDSISINGIKMVNKKDIVTKNGVIHLIDEVLIPDSAKQVIELAGKQQTTFTDLVAQLGLASSLKPDGEYTLLAPVNNAFSDDTLSMDQRLLKLILQNHILKVKVGLSDLYNGQILETIGGKQLRVFVYRTAICIENSCMVRGSKQGRNGAIHIFREIIQPAEKSLHDKLRQDKRFSIFLSLLEAADLKDLLTQPGDWTLFAPTNDAFKGMTSEERELLIGDKNALQNIILYHLTPGVYIGKGFEPGVTNILKTTQGSKIYLKGVNETLLVNELKSKESDIMTTNGVIHVVDKLLYPADIPVGNDQLLELLNKLIKYIQIKFVRGSTFKEIPMTVYRPAMTKIQIEGDPDFRLIKEGETVTEVIHGEPVIKKYTKIIDGVPVEITEKQTREERIITGPEIKYTRISTGGGETGETLQKFLQKEVSKVTKFIEGGDGHLFEDEEIKRLLQGDTPAKKIPANKRVQGPRRRSREGRSQ
[1]
  itch after periostin injection in monkeys: robust scratching
[2]; periostin 1 μg/ml, pilot data
  inward current by periostin: weak inward currents
[2]; periostin 10 μg/ml, 8 neurons from 4 mice
  average inward current by periostin: 58.4 pA

— US20220370545A1, “INTEGRIN RECEPTOR ALPHA V BETA 3 AND ITS LIGAND INVOLVED IN CHRONIC ITCH” (North Carolina State University, priority 2019, published 2022)
